The record followed here is paper PMC8100141.

The target of series [1] is DENV3 NS5 wild type (Dengue virus serotype 3) (UniProt Q5UB51). Description: fluorescence titration. The note with it: all adenosines are 1,N6-ethenoadenosine; Fluorescence: 50 mM Tris-HCl pH 7.5, 100 mM NaCl, 1 mM MgCl2, 1 mM DTT, 10% glycerol; EMSA: 20 mM Tris pH 7.4, 150 mM NaCl, 2 mM MgCl2, 5% glycerol, room ….
The target is the same in series [2]. Description: fluorescence competition. To be noted: Fluorescence: 50 mM Tris-HCl pH 7.5, 100 mM NaCl, 1 mM MgCl2, 1 mM DTT, 10% glycerol; EMSA: 20 mM Tris pH 7.4, 150 mM NaCl, 2 mM MgCl2, 5% glycerol, room ….

DENV3 NS5 wild type (Dengue virus serotype 3), sequence (Q5UB51 2491-3390): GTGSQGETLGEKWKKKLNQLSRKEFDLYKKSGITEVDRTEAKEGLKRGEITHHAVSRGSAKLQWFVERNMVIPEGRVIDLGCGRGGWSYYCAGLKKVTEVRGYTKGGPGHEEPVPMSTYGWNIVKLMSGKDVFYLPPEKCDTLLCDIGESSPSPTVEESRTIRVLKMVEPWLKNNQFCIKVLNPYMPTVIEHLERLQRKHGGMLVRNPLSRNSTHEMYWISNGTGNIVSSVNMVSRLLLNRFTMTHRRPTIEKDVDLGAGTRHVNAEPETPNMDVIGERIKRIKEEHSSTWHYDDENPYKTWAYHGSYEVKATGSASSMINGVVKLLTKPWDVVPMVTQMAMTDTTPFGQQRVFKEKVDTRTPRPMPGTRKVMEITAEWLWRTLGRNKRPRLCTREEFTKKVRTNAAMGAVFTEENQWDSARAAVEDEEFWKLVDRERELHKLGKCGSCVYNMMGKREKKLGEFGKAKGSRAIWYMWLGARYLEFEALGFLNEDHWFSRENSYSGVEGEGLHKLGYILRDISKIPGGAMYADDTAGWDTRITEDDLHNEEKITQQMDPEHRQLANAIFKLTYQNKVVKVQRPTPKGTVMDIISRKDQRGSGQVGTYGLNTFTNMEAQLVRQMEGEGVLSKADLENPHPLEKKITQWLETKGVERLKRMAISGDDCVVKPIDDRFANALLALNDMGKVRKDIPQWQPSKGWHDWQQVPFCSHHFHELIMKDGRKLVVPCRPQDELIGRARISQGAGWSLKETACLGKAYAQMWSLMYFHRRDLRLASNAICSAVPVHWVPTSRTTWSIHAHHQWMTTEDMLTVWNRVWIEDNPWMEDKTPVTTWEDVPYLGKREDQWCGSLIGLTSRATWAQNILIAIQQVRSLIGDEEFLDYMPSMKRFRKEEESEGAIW

AAAAAAAAAAAAAAAAAAAA [εA(pεA)19] yielded a Ka in series [1] of 2.1e+06 M⁻¹.

In turn, tRNA-SLADENV gave a Ka in series [2] of 4.8e+06 M⁻¹.
